Reference: patent US20210139548A1 (published 2021)
*1 amine or outer side, *2 acyl side, *3 side chain or, on linkers, in order; H or OH if unused. Side-chain parts run from the residue outwards. The star is where a group is joined. C18 diacid = O=C(O)CCCCCCCCCCCCCCCCC(=O)*; γGlu = O=C(O)[C@H](CCC(=O)[*:2])N[*:1]; Isovaleryl = CC(C)CC(=O)*; AEEA = NCCOCCOCC(=O)O

B1: Compound 173 (peptide)
peptide: Isovaleryl-APAK([AEEA-AEEA-γGlu-C18 diacid])PEEDASPEELQRYYVELRHYYNWLTRQRY-NH2
SMILES: CC(C)CC(=O)N[C@@H](C)C(=O)N1CCC[C@H]1C(=O)N[C@@H](C)C(=O)N[C@@H](CCCCNC(=O)COCCOCCNC(=O)COCCOCCNC(=O)CC[C@H](NC(=O)CCCCCCCCCCCCCCCCC(=O)O)C(=O)O)C(=O)N1CCC[C@H]1C(=O)N[C@@H](CCC(=O)O)C(=O)N[C@@H](CCC(=O)O)C(=O)N[C@@H](CC(=O)O)C(=O)N[C@@H](C)C(=O)N[C@@H](CO)C(=O)N1CCC[C@H]1C(=O)N[C@@H](CCC(=O)O)C(=O)N[C@@H](CCC(=O)O)C(=O)N[C@@H](CC(C)C)C(=O)N[C@@H](CCC(N)=O)C(=O)N[C@@H](CCCNC(=N)N)C(=O)N[C@@H](Cc1ccc(O)cc1)C(=O)N[C@@H](Cc1ccc(O)cc1)C(=O)N[C@H](C(=O)N[C@@H](CCC(=O)O)C(=O)N[C@@H](CC(C)C)C(=O)N[C@@H](CCCNC(=N)N)C(=O)N[C@@H](Cc1c[nH]cn1)C(=O)N[C@@H](Cc1ccc(O)cc1)C(=O)N[C@@H](Cc1ccc(O)cc1)C(=O)N[C@@H](CC(N)=O)C(=O)N[C@@H](Cc1c[nH]c2ccccc12)C(=O)N[C@@H](CC(C)C)C(=O)N[C@H](C(=O)N[C@@H](CCCNC(=N)N)C(=O)N[C@@H](CCC(N)=O)C(=O)N[C@@H](CCCNC(=N)N)C(=O)N[C@@H](Cc1ccc(O)cc1)C(N)=O)[C@@H](C)O)C(C)C
B2: Compound 174 (peptide)
peptide: Isovaleryl-APAK([AEEA-AEEA-γGlu-C18 diacid])PEEDAEPEELQRYYVSLRHYYNWLTRQRY-NH2
SMILES: CC(C)CC(=O)N[C@@H](C)C(=O)N1CCC[C@H]1C(=O)N[C@@H](C)C(=O)N[C@@H](CCCCNC(=O)COCCOCCNC(=O)COCCOCCNC(=O)CC[C@H](NC(=O)CCCCCCCCCCCCCCCCC(=O)O)C(=O)O)C(=O)N1CCC[C@H]1C(=O)N[C@@H](CCC(=O)O)C(=O)N[C@@H](CCC(=O)O)C(=O)N[C@@H](CC(=O)O)C(=O)N[C@@H](C)C(=O)N[C@@H](CCC(=O)O)C(=O)N1CCC[C@H]1C(=O)N[C@@H](CCC(=O)O)C(=O)N[C@@H](CCC(=O)O)C(=O)N[C@@H](CC(C)C)C(=O)N[C@@H](CCC(N)=O)C(=O)N[C@@H](CCCNC(=N)N)C(=O)N[C@@H](Cc1ccc(O)cc1)C(=O)N[C@@H](Cc1ccc(O)cc1)C(=O)N[C@H](C(=O)N[C@@H](CO)C(=O)N[C@@H](CC(C)C)C(=O)N[C@@H](CCCNC(=N)N)C(=O)N[C@@H](Cc1c[nH]cn1)C(=O)N[C@@H](Cc1ccc(O)cc1)C(=O)N[C@@H](Cc1ccc(O)cc1)C(=O)N[C@@H](CC(N)=O)C(=O)N[C@@H](Cc1c[nH]c2ccccc12)C(=O)N[C@@H](CC(C)C)C(=O)N[C@H](C(=O)N[C@@H](CCCNC(=N)N)C(=O)N[C@@H](CCC(N)=O)C(=O)N[C@@H](CCCNC(=N)N)C(=O)N[C@@H](Cc1ccc(O)cc1)C(N)=O)[C@@H](C)O)C(C)C

Biological target: T1, human neuropeptide Y2 receptor (human, UniProt P49146 1-381)
T1 construct: whole, on cells; also called hNPY2 receptor; hNPY2-R
T1 sequence (looked up): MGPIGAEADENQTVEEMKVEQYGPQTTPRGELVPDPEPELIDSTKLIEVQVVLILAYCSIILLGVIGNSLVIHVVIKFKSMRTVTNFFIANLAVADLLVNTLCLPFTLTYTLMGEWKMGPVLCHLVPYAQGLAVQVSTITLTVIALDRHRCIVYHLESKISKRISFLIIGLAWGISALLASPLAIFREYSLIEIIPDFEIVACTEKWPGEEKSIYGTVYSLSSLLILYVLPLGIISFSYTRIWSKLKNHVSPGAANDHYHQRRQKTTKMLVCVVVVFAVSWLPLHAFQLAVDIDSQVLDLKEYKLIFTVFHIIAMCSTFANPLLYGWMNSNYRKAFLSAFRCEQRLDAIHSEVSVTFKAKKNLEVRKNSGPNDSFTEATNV
Assay: radioligand competition (125I-PYY(1-36)), hNPY2R membranes
Procedure, shortened: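 Commercial human Y2 receptor membranes (0.5 μg protein/well) were incubated with peptide for 2 h at room temperature in 50 mM HEPES, 5 mM MgCl₂, 1 mM CaCl₂, pH 7.4, with 0.2% ovalbumin. Bound radioligand was separated on PEI-soaked GF/C filters and counted by scintillation, and IC₅₀ came from nonlinear sigmoidal regression.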

Binder	Ki [nM]
B1	1.71
B2	3.89
